This experiment concerns the target human ApoB100 (human) (UniProt P04114). The experiment in a line: cell-based or functional assay.
Sequence of UniProt P04114 (P04114 28-4563 limits assumed): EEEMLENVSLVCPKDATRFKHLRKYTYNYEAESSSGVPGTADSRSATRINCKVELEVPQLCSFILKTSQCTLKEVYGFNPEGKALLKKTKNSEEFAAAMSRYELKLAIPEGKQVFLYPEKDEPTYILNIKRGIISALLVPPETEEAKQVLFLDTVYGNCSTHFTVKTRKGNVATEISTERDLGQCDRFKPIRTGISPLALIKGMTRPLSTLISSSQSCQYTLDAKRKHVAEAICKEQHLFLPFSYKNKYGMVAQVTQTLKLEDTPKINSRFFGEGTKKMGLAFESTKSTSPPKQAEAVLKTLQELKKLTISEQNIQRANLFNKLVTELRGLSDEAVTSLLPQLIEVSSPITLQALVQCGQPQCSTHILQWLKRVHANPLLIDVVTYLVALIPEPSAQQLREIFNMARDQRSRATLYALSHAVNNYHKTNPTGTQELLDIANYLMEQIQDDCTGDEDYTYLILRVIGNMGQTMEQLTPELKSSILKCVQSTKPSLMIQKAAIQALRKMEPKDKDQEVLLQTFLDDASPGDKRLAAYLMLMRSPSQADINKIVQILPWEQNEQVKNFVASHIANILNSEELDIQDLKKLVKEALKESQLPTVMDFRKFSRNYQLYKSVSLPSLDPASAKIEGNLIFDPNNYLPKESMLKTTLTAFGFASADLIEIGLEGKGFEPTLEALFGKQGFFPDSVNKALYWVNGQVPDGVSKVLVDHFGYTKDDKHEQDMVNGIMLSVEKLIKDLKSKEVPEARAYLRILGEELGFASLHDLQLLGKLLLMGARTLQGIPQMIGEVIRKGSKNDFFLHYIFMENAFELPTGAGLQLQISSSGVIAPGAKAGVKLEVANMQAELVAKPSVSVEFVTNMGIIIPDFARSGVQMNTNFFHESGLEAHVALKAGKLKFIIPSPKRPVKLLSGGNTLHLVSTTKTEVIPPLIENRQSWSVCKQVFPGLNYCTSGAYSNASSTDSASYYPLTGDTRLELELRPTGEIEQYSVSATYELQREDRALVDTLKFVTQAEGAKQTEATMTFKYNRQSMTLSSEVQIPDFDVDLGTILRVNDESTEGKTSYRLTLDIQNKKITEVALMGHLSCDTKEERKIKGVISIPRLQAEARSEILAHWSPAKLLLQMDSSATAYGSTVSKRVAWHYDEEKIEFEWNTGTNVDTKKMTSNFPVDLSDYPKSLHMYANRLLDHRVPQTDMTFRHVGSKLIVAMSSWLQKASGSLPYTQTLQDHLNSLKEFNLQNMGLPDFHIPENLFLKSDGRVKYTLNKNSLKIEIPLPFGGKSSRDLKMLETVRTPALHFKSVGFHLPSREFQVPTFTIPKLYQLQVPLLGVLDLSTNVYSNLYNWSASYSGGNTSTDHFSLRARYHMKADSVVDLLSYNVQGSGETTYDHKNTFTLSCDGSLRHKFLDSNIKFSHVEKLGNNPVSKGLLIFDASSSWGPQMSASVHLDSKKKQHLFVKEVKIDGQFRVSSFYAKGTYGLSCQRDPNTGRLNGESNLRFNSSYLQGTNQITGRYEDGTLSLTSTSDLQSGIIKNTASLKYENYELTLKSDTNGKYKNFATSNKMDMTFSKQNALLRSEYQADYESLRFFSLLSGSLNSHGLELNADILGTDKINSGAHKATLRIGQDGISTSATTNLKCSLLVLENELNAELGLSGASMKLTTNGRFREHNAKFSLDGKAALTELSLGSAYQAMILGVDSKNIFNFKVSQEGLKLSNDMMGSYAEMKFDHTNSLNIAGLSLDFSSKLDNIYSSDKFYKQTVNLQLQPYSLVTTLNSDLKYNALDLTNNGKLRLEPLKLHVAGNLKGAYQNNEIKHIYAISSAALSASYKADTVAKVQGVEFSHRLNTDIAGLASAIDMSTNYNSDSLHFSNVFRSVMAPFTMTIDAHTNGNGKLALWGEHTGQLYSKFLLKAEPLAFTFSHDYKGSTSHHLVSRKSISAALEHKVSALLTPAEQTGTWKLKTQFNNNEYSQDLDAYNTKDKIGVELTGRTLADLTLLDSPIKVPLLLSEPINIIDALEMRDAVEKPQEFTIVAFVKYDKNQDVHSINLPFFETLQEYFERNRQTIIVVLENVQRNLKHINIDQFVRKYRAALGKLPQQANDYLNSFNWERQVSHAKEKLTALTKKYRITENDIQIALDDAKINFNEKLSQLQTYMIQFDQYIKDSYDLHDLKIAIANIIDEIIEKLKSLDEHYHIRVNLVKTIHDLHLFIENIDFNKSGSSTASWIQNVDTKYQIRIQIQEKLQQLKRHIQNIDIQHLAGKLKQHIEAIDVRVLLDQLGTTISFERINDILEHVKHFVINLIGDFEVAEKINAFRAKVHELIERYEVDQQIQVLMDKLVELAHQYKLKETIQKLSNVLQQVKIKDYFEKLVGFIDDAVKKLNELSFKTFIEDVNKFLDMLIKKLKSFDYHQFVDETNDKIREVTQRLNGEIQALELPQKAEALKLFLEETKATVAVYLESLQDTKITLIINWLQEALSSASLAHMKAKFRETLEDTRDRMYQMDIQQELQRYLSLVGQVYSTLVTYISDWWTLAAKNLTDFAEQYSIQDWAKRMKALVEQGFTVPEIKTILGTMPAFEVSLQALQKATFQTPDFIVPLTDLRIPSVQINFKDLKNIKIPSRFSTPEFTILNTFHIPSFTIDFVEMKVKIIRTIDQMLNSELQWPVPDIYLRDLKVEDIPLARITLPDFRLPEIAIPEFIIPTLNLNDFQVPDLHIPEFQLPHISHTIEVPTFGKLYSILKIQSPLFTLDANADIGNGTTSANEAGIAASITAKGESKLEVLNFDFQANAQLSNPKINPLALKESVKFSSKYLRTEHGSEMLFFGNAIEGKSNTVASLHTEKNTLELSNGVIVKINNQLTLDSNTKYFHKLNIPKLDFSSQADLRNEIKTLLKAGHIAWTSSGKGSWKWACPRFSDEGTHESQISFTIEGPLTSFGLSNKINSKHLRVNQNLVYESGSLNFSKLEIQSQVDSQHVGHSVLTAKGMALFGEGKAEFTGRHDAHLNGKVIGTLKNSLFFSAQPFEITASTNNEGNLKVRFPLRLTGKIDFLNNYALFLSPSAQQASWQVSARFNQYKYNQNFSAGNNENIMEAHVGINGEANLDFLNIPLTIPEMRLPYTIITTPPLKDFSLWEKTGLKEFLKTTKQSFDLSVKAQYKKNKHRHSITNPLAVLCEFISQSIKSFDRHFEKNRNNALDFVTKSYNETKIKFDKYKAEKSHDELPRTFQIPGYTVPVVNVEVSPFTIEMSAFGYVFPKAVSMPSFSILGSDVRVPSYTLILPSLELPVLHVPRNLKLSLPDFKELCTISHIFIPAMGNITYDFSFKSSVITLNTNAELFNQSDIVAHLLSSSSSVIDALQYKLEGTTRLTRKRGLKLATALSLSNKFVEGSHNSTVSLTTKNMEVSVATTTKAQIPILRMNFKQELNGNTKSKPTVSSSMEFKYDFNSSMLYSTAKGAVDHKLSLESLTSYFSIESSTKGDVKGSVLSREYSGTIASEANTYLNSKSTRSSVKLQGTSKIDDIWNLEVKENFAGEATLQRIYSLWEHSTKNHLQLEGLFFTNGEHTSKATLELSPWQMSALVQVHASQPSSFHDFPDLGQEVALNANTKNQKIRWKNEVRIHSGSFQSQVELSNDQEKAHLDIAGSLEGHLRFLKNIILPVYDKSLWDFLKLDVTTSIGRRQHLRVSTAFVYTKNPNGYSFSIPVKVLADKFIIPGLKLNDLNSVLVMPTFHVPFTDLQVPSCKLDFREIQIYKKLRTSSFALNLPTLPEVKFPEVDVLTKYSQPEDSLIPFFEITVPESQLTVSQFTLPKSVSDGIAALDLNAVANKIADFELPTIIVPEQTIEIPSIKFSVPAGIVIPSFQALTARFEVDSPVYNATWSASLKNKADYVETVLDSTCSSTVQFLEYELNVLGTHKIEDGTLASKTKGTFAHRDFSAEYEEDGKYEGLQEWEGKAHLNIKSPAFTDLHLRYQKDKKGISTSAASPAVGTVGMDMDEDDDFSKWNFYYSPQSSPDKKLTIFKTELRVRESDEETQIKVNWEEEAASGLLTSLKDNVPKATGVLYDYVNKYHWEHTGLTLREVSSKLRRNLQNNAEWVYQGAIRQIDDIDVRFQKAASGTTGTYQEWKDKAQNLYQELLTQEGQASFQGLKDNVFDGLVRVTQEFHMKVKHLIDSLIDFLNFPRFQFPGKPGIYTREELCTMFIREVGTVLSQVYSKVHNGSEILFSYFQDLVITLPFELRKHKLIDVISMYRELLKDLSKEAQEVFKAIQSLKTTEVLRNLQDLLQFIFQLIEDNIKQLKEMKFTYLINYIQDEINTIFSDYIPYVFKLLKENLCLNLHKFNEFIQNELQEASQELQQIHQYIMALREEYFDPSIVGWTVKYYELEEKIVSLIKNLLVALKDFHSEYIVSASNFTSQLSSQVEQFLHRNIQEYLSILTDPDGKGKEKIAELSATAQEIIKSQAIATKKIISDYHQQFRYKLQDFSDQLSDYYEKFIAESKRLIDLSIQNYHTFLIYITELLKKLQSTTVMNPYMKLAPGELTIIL

In turn, “human low density lipoprotein receptor (hLDLR) (from UniProt P01130 22-860)” had a reduction of serum cholesterol in LAHB mice after AAV8.TBG.hLDLR of 30%.

These data come from patent publication US20210285013A1.
